Molecular target: protein kinase C theta (human, UniProt Q04759 1-706)
Assay: cell-based or functional assay

Sequence of protein kinase C theta (Q04759 whole entry): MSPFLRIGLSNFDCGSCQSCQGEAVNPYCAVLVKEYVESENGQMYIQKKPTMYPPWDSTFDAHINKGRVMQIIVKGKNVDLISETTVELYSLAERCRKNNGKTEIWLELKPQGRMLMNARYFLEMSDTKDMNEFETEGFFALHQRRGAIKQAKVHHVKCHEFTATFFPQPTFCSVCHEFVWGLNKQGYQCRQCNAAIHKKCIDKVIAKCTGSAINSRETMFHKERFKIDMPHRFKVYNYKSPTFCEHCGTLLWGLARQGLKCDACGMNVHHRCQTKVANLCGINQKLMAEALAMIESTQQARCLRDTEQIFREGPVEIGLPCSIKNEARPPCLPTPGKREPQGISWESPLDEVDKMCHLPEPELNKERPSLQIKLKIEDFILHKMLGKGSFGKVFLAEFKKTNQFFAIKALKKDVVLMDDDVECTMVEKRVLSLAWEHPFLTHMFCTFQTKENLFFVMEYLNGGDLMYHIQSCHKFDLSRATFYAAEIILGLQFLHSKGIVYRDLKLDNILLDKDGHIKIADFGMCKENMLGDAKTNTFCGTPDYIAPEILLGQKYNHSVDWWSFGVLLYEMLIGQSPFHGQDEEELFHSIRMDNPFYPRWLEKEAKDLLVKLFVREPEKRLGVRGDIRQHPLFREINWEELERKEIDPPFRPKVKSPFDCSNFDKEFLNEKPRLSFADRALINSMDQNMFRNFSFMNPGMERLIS

- proliferation (3H-thymidine incorporation) of Th1 and Th2 cells stimulated with CD3 and CD28, relative to no inhibitor: 16 % of control levels
Binder: RQIKIWFQNRRMKWKKMDQNMFRNFSFNMP [antennapedia-PKC theta peptide]
